In experiment [1] the target is T1, Atg1 (S. cerevisiae, UniProt P53104 1-897, phosphothreonine at 226 (T226)).
T1 construct: Atg1, S. cerevisiae BY4741, open reading frame from genomic DNA; also called full-length Atg1; Atg1–kinase; source: High Five (BTI-TN-5B1–4) insect cells, purified (Ni-NTA, SEC)
T1 sequence (looked up): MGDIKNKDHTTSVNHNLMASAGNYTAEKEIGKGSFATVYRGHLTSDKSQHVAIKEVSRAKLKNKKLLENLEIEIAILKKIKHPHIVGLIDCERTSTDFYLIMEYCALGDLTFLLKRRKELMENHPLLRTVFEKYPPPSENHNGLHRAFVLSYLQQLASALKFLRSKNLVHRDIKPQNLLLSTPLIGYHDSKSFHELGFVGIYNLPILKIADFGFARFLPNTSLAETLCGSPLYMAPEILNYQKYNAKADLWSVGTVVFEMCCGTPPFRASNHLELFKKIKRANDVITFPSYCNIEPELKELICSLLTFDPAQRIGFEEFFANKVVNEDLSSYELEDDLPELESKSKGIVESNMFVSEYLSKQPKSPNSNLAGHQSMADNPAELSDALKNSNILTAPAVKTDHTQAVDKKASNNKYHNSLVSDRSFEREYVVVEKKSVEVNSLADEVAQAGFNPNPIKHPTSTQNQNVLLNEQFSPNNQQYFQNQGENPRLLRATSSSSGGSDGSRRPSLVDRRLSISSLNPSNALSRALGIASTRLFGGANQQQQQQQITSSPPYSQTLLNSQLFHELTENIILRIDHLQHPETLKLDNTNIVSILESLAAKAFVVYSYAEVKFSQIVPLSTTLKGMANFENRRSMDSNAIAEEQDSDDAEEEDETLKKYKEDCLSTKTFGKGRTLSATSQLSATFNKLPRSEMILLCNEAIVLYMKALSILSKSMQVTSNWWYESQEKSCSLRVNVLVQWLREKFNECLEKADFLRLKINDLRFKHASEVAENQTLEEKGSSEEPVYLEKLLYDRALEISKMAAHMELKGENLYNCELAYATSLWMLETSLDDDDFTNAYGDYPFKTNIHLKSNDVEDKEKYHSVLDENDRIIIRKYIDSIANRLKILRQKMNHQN
Nature of the experiment: SEC; ATP added to fully assembled Atg1^PC (Atg13, Atg29 and Atg1 become phosphorylated by Atg1); SEC and SDS–PAGE of the fractions. Conditions: both partners purified. Background: SEC sorts molecules by how far they enter the pores of the column.

Experiment [2] deals with T1, Atg1. Nature of the experiment: SEC; complexes assembled from purified subunits or subcomplexes, 30 min at room temperature, then gel filtration on Superose 6. Conditions: both partners purified.

Here are results for 2 molecules from paper PMC4729957, “The Atg1–kinase complex tethers Atg9-vesicles to initiate autophagy” (Nature Communications, 2016).

B1: Atg13(P), Atg13 phosphorylated by Atg1 in vitro (natural protein, S. cerevisiae, UniProt Q06628 1-738, looked up)
chain: MVAEEDIEKQVLQLIDSFFLKTTLLICSTESSRYQSSTENIFLFDDTWFEDHSELVSELPEIISKWSHYDGRKELPPLVVETYLDLRQLNSSHLVRLKDHEGHLWNVCKGTKKQEIVMERWLIELDNSSPTFKSYSEDETDVNELSKQLVLLFRYLLTLIQLLPTTELYQLLIKSYNGPQNEGSSNPITSTGPLVSIRTCVLDGSKPILSKGRIGLSKPIINTYSNALNESNLPAHLDQKKITPVWTKFGLLRVSVSYRRDWKFEINNTNDELFSARHASVSHNSQGPQNQPEQEGQSDQDIGKRQPQFQQQQQPQQQQQQQQQQQRQHQVQTQQQRQIPDRRSLSLSPCTRANSFEPQSWQKKVYPISRPVQPFKVGSIGSQSASRNPSNSSFFNQPPVHRPSMSSNYGPQMNIEGTSVGSTSKYSSSFGNIRRHSSVKTTENAEKVSKAVKSPLQPQESQEDLMDFVKLLEEKPDLTIKKTSGNNPPNINISDSLIRYQNLKPSNDLLSEDLSVSLSMDPNHTYHRGRSDSHSPLPSISPSMHYGSLNSRMSQGANASHLIARGGGNSSTSALNSRRNSLDKSSNKQGMSGLPPIFGGESTSYHHDNKIQKYNQLGVEEDDDDENDRLLNQMGNSATKFKSSISPRSIDSISSSFIKSRIPIRQPYHYSQPTTAPFQAQAKFHKPANKLIDNGNRSNSNNNNHNGNDAVGVMHNDEDDQDDDLVFFMSDMNLSKEG
modifications: phosphoserine at 428, 429 and 496 and at several other positions (Supplementary Table 1)
notes: Atg13, S. cerevisiae BY4741; also called phosphorylated Atg13; source: E. coli Rosetta, purified; phosphorylated by adding ATP to fully assembled Atg1^PC
On to B1, for which the binding result in the experiment with Atg1 [1] was “binds”.

B2: Atg13 (natural protein, S. cerevisiae, UniProt Q06628 1-738, looked up)
chain: B1 chain
notes: Atg13, S. cerevisiae BY4741, open reading frame from genomic DNA; source: E. coli Rosetta, purified (Ni-NTA, anion exchange)
With B2, the binding result in the experiment with Atg1 [2] is given as “binds”.
